Four molecules from patent US20230365705A1 (DYNAMICURE BIOTECHNOLOGY, published 2023) can be followed below.

Experiment [1] addresses T1, Human CD93 on cells (human CD93 expressing CHO cells; HUVEC, U937 and KG1a cells) (human, UniProt Q9NPY3 22-652).
T1 construct: whole, on cells; also called hCD93 expressing CHO cells; hCD93 CHO cells
T1 sequence (looked up): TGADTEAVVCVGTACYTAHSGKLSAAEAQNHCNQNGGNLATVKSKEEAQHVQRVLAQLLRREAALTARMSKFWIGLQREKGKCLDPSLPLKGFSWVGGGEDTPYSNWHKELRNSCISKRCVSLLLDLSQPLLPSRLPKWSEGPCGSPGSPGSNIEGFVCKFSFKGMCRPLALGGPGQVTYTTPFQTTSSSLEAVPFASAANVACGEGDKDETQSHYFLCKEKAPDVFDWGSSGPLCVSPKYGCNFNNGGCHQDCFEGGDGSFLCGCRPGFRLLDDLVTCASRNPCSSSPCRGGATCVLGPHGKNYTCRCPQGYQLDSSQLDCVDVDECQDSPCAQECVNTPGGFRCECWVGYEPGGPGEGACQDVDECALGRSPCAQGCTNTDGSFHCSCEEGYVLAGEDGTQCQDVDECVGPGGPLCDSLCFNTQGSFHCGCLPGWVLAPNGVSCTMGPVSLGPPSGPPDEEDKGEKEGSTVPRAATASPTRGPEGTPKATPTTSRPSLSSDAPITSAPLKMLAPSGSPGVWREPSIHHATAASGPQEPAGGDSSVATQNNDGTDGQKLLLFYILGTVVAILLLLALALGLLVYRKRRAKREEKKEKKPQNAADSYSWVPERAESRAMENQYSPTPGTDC
Kind of experiment: flow cytometry blocking assay, CHO-hCD93 cells, antibody 50 ug/ml then MMRN2 0.5 ug/ml, APC-A. On the procedure: (§1) After incubation, the cells were washed with FACS buffer and incubated with anti-His conjugated APC or streptavidin conjugated APC at a ratio of 1:500 for 30 minutes at 4° C. After washing with FACS buffer twice, the samples were analyzed and data acquired in NovoCyte Flow.
(In flow cytometry, cells or beads pass a laser one at a time.)

The target in experiment [2] is T1, Human CD93 on cells (human CD93 …). Kind of experiment: flow cytometry, CHO-hCD93 cells, APC-A.
For experiment [3] the target is unchanged. Briefly: flow cytometry blocking assay, CHO-hCD93 cells, antibody 50 ug/ml then MMRN2 0.1 ug/ml, APC-A. The procedure:
as §1

Experiment [4] addresses T2, Human CD93 recombinant protein (Sino Biological Inc, Catalog #12589-H08H) (human, UniProt Q9NPY3 22-580).
T2 construct: Biotinylated (EZ-LINK NHS-PEG4 biotin) in the BLI assays; also called hCD93; His-tagged human CD93
T2 sequence (looked up): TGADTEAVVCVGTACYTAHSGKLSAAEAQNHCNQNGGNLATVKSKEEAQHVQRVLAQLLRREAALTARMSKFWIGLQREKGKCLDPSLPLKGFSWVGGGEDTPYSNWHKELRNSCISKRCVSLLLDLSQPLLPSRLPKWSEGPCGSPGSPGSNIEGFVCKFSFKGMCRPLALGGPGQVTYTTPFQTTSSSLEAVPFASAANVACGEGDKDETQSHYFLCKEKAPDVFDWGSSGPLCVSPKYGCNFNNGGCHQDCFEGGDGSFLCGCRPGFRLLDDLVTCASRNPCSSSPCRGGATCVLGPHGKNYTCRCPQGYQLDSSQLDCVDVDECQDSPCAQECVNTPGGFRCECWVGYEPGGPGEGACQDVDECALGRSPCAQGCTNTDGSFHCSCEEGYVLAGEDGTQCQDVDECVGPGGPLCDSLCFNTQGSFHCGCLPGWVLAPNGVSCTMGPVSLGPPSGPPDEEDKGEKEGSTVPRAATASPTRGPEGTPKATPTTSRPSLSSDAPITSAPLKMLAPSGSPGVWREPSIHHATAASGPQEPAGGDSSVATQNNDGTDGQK
Kind of experiment: BLI (Octet), human CD93; sheet prints Anti-Penta-HIS(HIS1K) biosensor. In general terms: Biolayer interferometry detects binding as a change in optical thickness at a sensor tip.

For experiment [5], the target named is T1, Human CD93 on cells (human CD93 …). Briefly: flow cytometry titration on HUVEC cells -human serum; column head printed kd, unit from the axis log (concentration (M)). The procedure:
(§2) Recombinant parental anti-CD93 antibodies were evaluated for their ability to bind to HUVEC cells in the presence or absence of human serum. […] Antibodies were purified using Protein G Sepharose. The resulting antibodies were tested for its binding capacity to a variety of cells that express CD93. […] Cells were quenched with media then counted. Cells were resuspended in FACS buffer (ice cold PBS with 0.5% BSA) and human serum was added to 20% (10% final volume) and put on ice for approximately 20 minutes. 5×10⁴ cells were seeded per well in 100 μL media and incubated with serial diluted anti-CD93 antibodies in 100 μL on ice for 2 hours. Cells were then washed by spinning cells at 1200 rpm for 5 min. Media was discarded and cells were resuspended in 200 μL ice cold FACS buffer. The wash step was repeated and cells were resuspended in 100 μL of secondary antibody, AlexaFluor647 conjugated anti-human IgG or anti-mouse IgG antibodies (Jackson ImmunoResearch), diluted 1:500 in FACS buffer. Plates were blocked from light and incubated 1 hour at 4° C. Cells were then washed again then were resuspended in 200 μL ice cold FACS buffer. Cells were washed again and resuspended in 200 μL fixing solution (PBS with 1% formaldehyde). Samples were stored at 4° C. covered in foil, then were acquired in NovoCyte Flow Cytometer and analyzed by NovoExpress software.

Experiment [6] shares this target. Kind of experiment: flow cytometry titration on human CD93 CHO cells; column head printed kd, unit from the axis log (concentration (M)). The procedure:
Cells were quenched with media then counted. Cells were resuspended in FACS buffer (ice cold PBS with 0.5% BSA) and human serum was added to 20% (10% final volume) and put on ice for approximately 20 minutes. 5×10⁴ cells were seeded per well in 100 μL and incubated with serial diluted anti-CD93 antibodies in 100 μL on ice for 2 hours. Samples were then washed by spinning samples at 1200 rpm for 5 minutes. Media was discarded and cells were resuspended in 200 μL ice cold FACS buffer. Cells were washed again and resuspended in 100 μL of secondary Antibody, AlexaFluor647 conjugated anti-human IgG or anti-mouse IgG antibodies (Jackson ImmunoResearch), diluted 1:500 in FACS buffer. Plates were covered with foil to protect from like and incubated for 1 hour on ice. Cells were washed again resuspended in 200 μL ice cold FACS buffer. Cells were washed again and were resuspended in 200 μL fixing solution (PBS with 1% formaldehyde). Samples were stored at 4° C. covered in foil, then were acquired in NovoCyte Flow Cytometer and analyzed by NovoExpress software.

For experiment [7] the target is unchanged. Kind of experiment: flow cytometry titration on U937 cells -human serum; column head printed kd, unit from the axis log (concentration (M)). The procedure: Cells were quenched with media then counted. Cells were resuspended in FACS buffer (ice cold PBS with 0.5% BSA) and put on ice ˜20 min. 5×10⁴ cells were seeded per well in 100 μL and incubated with serial diluted anti-CD93 antibodies in 100 μL on ice for 2 hours. Samples were then washed by spinning samples at 1200 rpm for 5 minutes. Media was discarded and cells were resuspended in 200 μL ice cold FACS buffer. Cells were washed again and resuspended in 100 μL of secondary Antibody, AlexaFluor647 conjugated anti-human IgG or anti-mouse IgG antibodies (Jackson ImmunoResearch), diluted 1:500 in FACS buffer. Plates were covered with foil to protect from light and were incubated for 1 hour on ice. Samples were then washed again and resuspended in 200 μL ice cold FACS buffer. Cells were washed again and resuspended in 200 μL fixing solution (PBS with 1% formaldehyde). Samples were stored at 4° C. covered in foil, ands were subsequently acquired in NovoCyte Flow Cytometer and analyzed by NovoExpress software.

The target is the same in experiment [8]. Briefly: flow cytometry titration on HUVEC cells +human serum; column head printed kd, unit from the axis log (concentration (M)). On the procedure:
as §2

The target is the same in experiment [9]. Kind of experiment: flow cytometry, CHO cells overexpressing human CD93, antibody 0.01ug, mIgG1 as control, APC-A.

B1: 10B1 (antibody, V domains shown)
VH: QVQLKQSGPGLVQPSQSLSITCTVSDFSLSSFGVNWVRQPPGKGLEWLGVIWSGGSTDYNVAFISRLSISKDNSKSQVFFKMNNLQADDTAIYYCARNWRYDGYFYAMDYWGQGTSVTVSS
VL: DIVMTQSQKFMSTSTGDRVSVTCKASQNVGTNVAWYQQKPGQSPKALIYSASYRFIGVPDRFTGSGSGTDFTLTITNVQSEDLAEYFCQQYNRNPITFGSGTKLEIK
notes: Mouse hybridoma monoclonal antibody
Take B1: the “M3 gate, % of cells positive for MMRN2 after the antibody” value in [1] worked out at 47.2%. Moreover, in experiment [2], the “M3 gate, % of cells” value worked out at 97.3%. In addition, in experiment [3], the “M3 gate, % of cells positive for MMRN2 after the antibody” value was 29.4%. Further, in [4], the Kd was 0.904 nM, the koff worked out at 0.000116 s⁻¹ and the kon came out at 128000 M⁻¹ s⁻¹.

B2: Recombinant parental 16E4 with a human CH1 domain and mouse IgG1 CH2 and CH3 Fc domains (antibody, V domains shown)
VH: QVQLQQPGAELVKPGASVKLSCKASGYTFTSYWMHWVKQRPGQGLEWIGEIDPSASYTYYNQKFKGKATLTVDKSSSTAYMQLSSLTSEDSAVYYCARSVYYGNKYFDVWGAGTTVTVSS
VL: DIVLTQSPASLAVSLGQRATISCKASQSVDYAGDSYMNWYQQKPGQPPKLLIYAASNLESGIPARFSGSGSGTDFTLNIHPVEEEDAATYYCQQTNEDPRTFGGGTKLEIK
In the case of B2, the Kd in experiment [5] turned out to be 0.174 nM; in [6], 0.14 nM; in experiment [7], 0.0629 nM; in experiment [8], 0.314 nM.

B3: Recombinant parental 7F3 with a human CH1 domain and mouse IgG1 CH2 and CH3 Fc domains (antibody, V domains shown)
VH: QVQLQQSGADLVRPGASVKLSCKASGYTFTDYEMHWVKQTPVYGLEWIGGIDPETGDTAYNQNFKGKATLTADKSSSAAYMELRSLTSEDSAVYYCTNYGNLYYYAMDYWGQGTSVTVSS
VL: ENVLTQSPAIMSASPGEKVTMTCRASSSVSSSYLHWYQQKSGASPKLWIYSTSNLAFGVPARFSGSGSGTSYSLTISSVEAEDAATYYCQQYSGYPLTFGSGTKLEIK
As for B3, the dissociation constant (Kd) was determined as 0.741 nM in experiment [5], 0.0757 nM in experiment [6], 0.0234 nM in experiment [7] and 3.43 nM in experiment [8].

B4: Recombinant parental 17B10 with a human CH1 domain and mouse IgG1 CH2 and CH3 Fc domains (antibody, V domains shown)
VH: QVQLQQSGPELVKPGASVKISCKASGYAFSSYWLNWVKQRPGKGLEWFGRIYPGDGDTDYNGKFKGKATLTADKSSSTAYMQLRSLTSEDSAVYFCVRGDGYWAMDYWGQGTSVTVSS
VL: DIVMTQAAFSNPVTLGTSASISCRFSKSLLHSNGITYLYWYLQKPGQSPQLLIYQMSNLASGVPDRFSSSGSGTDFTLRISRVEAEDVGVYYCAQNLELPWTFGGGTKLEIK
With B4, the dissociation constant (Kd) worked out at 0.111 nM in experiment [5], 0.163 nM in experiment [6], 0.0666 nM in [7] and 0.196 nM in experiment [8]. For the same molecule, the “M2 gate, % of cells” value in experiment [9] stood at 98.4%.

As a reminder, the Kd is the free concentration of one partner at which half of the binding sites on the other are occupied at equilibrium, for simple one-to-one binding. In general, koff refers to the rate constant with which the complex falls apart. A word on the kon: it is the rate constant with which the complex forms.
